In US10662235B2, “Cysteine engineered fibronectin type III domain binding molecules” (Janssen Biotech, Inc., priority 2016, dated 2020):

Target: T1, EGFR on A431 cells (Homo sapiens, UniProt P00533)
T1 construct: A431 cells (American Type Culture Collection, cat. # CRL-1555) over-express EGFR; host or cells: A431
Assay: A431 cell binding assay
Conditions: purified FN3 domains
Protocol: To assess the ability of different FN3 domains to bind EGFR in a more physiological context, their ability to bind A431 cells was measured. A431 cells (American Type Culture Collection, cat. # CRL-1555) over-express EGFR with ˜2×10^6 receptors per cell. Cells were plated at 5,000/well in opaque black 96-well plates and allowed to attach overnight at 37° C., in a humidified 5% CO2 atmosphere. FN3 domain-expressing bacterial lysates were diluted 1,000-fold into FACS stain buffer (Becton Dickinson) and incubated for 1 hour at room temperature in triplicate plates. Lysates were removed and cells were washed 3 times with 150 μL/well of FACS stain buffer. Cells were incubated with 50 μL/well of anti-penta His-Alexa488 antibody conjugate (Qiagen) diluted 1:100 in FACS stain buffer for 20 minutes at room temperature. Cells were washed 3 times with 150 μL/well of FACS stain buffer, after which wells were filled with 100 μL of FACS stain buffer and read for fluorescence at 488 nm using an Acumen eX3 reader. […]
A431 cells were plated at 5,000/well in opaque black 96-well plates and allowed to attach overnight at 37° C., in a humidified 5% CO2 atmosphere. […] Cells were washed 3 times with 150 μL/well of FACS stain buffer, after which wells were filled with 100 μL of FACS stain buffer and read for fluorescence at 488 nm using an Acumen eX3 reader. […]

EC50: > 20 µM
B1: P54CR4-31: EGFR-binding FN3 domain, SEQ ID NO: 26 (protein)
chain: LPAPKNLVVSEVTEDSLRLSWTAPDAAFDSFLIQYQESEKVGEAINLTVPGSERSYDLTGLKPGTEYTVSIYGVLGSYVFEHDVMLPLSAEFTT
modifications: EGFR binding FN3 domain
